# Data published in patent US20220073922, “Aptamers and use thereof” (Aptitude Medical Systems, Inc., published 2022).
# T1: VEGF-165 (VEGFA isoform 165) (Homo sapiens)
# T1 chain: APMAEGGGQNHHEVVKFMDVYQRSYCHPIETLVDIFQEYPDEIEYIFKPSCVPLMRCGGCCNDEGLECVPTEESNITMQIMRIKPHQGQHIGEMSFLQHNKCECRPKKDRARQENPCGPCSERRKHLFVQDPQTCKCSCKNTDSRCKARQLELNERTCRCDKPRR
# B1: AMSB104 (ssRNA)
# RNA: CGCAUAGAUAAGCCAACAAACGUACAUUCUCUGUUAGUAUUUUCUGCGUUUCGCUAGAUGGCUAACACGUAUAUUUGUGGAGAUGCACUAGCG
# modifications: 2'-F all positions
# B2: AMSB101 (ssRNA)
# RNA: UUUCGCUAGAUGGCUAACACGUAUAUUUGUGGAGAUGCACUAGCGCGCAUAGAUAAGCCAACAAACGUACAUUCUCUGUUAGUAUUUUCUGCG
# modifications: 2'-F all positions
# B3: AMSB105 (ssRNA)
# RNA: CGCAUAGAUAAGCCAACAAACGUACAUUCUCUGUUAGUAUUUUCUGCGCGUGGAGAUGCAUUCUGUCGAAGAUUGGCUAACACG
# modifications: 2'-F all positions
# B4: AMSB106 (ssRNA)
# RNA: CGCAUAGAUAAGCCAACAAACGUACAUUCUCUGUUAGUAUUUUCUGCGCGCUAGAUGGCUAACACUAUUGUGGAGAUGCACUAGCG
# modifications: 2'-F all positions
# B5: AMSB102 (ssRNA)
# RNA: CGUGGAGAUGCAUUCUGUCGAAGAUUGGCUAACACGCGCAUAGAUAAGCCAACAAACGUACAUUCUCUGUUAGUAUUUUCUGCG
# modifications: 2'-F all positions
# B6: AMS0525 (ssRNA)
# RNA: GCAUAGAUAAGCCAACAAACGUACAUUCUCUGUUAGUAUUUUCUGCACACCGUCGCUUAGU
# modifications: 2'-F all positions
# Molecular target: T2, Angiopoietin-2 (Ang2) (Homo sapiens, UniProt O15123 O15123:19-496)
# Test: flow
# Details: tags: His tag, R&D Systems 623-AN; label: biotin
# T2 sequence (O15123 19-496, one chain of several): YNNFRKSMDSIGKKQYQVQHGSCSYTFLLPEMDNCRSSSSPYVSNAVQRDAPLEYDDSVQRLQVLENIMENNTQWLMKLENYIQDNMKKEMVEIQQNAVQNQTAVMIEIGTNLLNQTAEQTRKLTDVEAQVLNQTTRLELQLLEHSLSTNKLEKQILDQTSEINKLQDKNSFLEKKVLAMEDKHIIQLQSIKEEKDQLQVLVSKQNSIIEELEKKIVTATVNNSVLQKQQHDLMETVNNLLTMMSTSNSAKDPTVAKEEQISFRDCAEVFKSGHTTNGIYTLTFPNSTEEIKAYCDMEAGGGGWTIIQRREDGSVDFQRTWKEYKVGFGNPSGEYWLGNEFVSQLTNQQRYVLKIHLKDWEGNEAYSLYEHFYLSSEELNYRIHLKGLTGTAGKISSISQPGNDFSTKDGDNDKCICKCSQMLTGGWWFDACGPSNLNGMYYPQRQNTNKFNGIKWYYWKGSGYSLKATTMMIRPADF
row,Binder,Kd
1,B1,0.159 nM
2,B2,0.138 nM
3,B3,0.052 nM
4,B4,0.031 nM
5,B5,0.056 nM

# Molecular target: T3, VEGF-121 (VEGFA isoform 121) (Homo sapiens, UniProt P15692 SEQ:1-121)
# Test: flow
# Details: chain copies: 2 (inferred); label: biotin
row,Binder,Kd
1,B1,0.087 nM
2,B2,0.125 nM
3,B3,0.123 nM
4,B4,0.043 nM
5,B5,0.092 nM

# Molecular target: T1, VEGF-165 (VEGFA isoform 165)
# Test: flow; PBSMCT, 37 C
# Details: chain copies: 2 (inferred); label: biotin
# Method: (§1) Truncated and modified variants of the anti-VEGF aptamers of the present disclosure were prepared by LGC Biosearch Technologies (Novato, Calif.), and their binding affinity to corresponding targets were examined. Briefly, the equilibrium binding constants of the enriched libraries were measured using magnetic bead partitioning. Biotinylated anti-VEGF aptamers were conjugated to the 1 μm streptavidin-coated MyOne Streptavidin Cl magnetic beads (Thermo Fisher Scientific, 65002). Binding assays were performed by incubating fixed concentration of anti-VEGF aptamer (0.01 nM) and target protein at concentrations ranging from 10⁻¹² to 10⁻⁸ M in PBSMCT buffer (DPBS, pH 7.2 with 2.5 mM MgCl₂, 1 mM CaCl₂) and 0.01% TWEEN-20) at 37° C. for 90 minutes. Bound target protein was partitioned by magnetic separation and subsequently labeled via fluorescent anti-VEGF or anti-His-tag antibody. The fraction of anti-VEGF aptamer bound was quantified by flow cytometry (BD Accuri C6 Plus). Raw binding data were corrected for nonspecific background binding of target protein to empty magnetic beads. The fraction of bound anti-VEGF aptamer was plotted as a function of protein concentration and a non-linear curve-fitting algorithm (Langmuir one-site binding model) was used to extract equilibrium binding constants (KD values) from the data (FIG. 1).
row,Binder,Kd
1,"AGUUAUUUGGUGGAGAGGAUCCAUUUAGCUUAUACAAUUC (ssRNA, 2'-F all positions) [AMS0419]",0.99 nM
2,"GCCGUGGAGAUGCGUUCCGUCGGGAUCGGCUAACACGGC (ssRNA, 2'-F all positions) [AMS0425.11]",0.349 nM
3,"CGCUAGUGGCGAACACGUAUAUUUGUGGCGAUGCACUAGCG (ssRNA, 2'-F all positions) [AMS0421.4]",1.92 nM
4,"UUCUGUCUUUUUAGAUAAUGUCCCCUUGUUGCACAUUACA (ssRNA, 2'-F all positions) [AMS0404]",0.419 nM
5,"CGUGGAGAUGCAUUCUGUCGAGGAUUGGCUAACACGCGAA (ssRNA, 2'-F all positions) [AMS0425]",0.102 nM
6,"CGCUAGAUGGCUAACACUAUUGUGGAGAUGCACUAGCG (ssRNA, 2'-OMe at 1-3 and 36-38, 2'-F elsewhere) [AMS0427.1]",0.092 nM
7,"CGCUAGAUGGCUAACACUAUUGUGGAGAUGCACUAGCG (ssRNA, LNA at 1-3 and 36-38, 2'-F elsewhere) [AMS0427.2]",0.087 nM
8,"UCCUUAGAUGGCUAACACGUAUAUUUGUGGAGAUGCACUA (ssRNA, 2'-F all positions) [AMS0421.1]",0.101 nM
9,"CGUGGAGAUGCAUUCUUCGAGAUUGGCUAACACG (ssRNA, 2'-F all positions) [AMS0425.3]",0.981 nM
10,"AUUCUGUCUUUUUAAAUAAUGUCCCCUUGUUGCACAUUACAGAA (ssRNA, 2'-F all positions) [AMS0403]",0.111 nM
11,"CCGGCCAUUGGUGGAGAUUAUCCUUUGAGUACGGUUAUUC (ssRNA, 2'-F all positions) [AMS0420]",0.87 nM
12,"GCUCUUCAGCCCCGCGCCGGGUCCCACUCUGCGCCGCUC (ssRNA, 2'-F all positions) [AMS0401]",0.087 nM
13,"GCCGUGGAGAUGCGUUCCGUCGAGGAUCGGCUAACACGGC (ssRNA, 2'-F all positions) [AMS0425.12]",0.678 nM
14,"CAGGUGGAGAUGCAUUCUGUCGAAGAUUGGCUAACACCUG (ssRNA, 2'-F all positions) [AMS0425.10]",0.652 nM
15,"CGUGGAGAUGCAUUCUGUCGAGGAUUGGCUAACACG (ssRNA, 2'-F all positions) [AMS0425.1]",0.356 nM
16,"CGUGGAGAUGCGUUCCGUCGAGGAUCGGCUAACACG (ssRNA, 2'-F all positions) [AMS0425.8]",0.876 nM
17,"GCUCUUCGGUGUUAACUACCAAUCGUUGAUCGUUUUGCAAAAAAUUCC (ssRNA, 2'-F all positions) [AMS0406]",0.324 nM
18,"GCUCUUCAAUGUUAACUACCAAUCGUUGAUCGUUUUGCAGAAAAUUCC (ssRNA, 2'-F all positions) [AMS0405]",1.01 nM
19,"GUGCUUCAUAUCCGUCCCCCCCUUGCUGCG (ssRNA, 2'-F all positions) [AMS0402]",0.098 nM
20,"GCGUAGAUGGCUAACACUAUUGUGGAGAUGCACUACGC (ssRNA, 2'-F all positions) [AMS0421.3]",0.098 nM
21,"CCAACCGUGUAUCUGUCUUGCUUGCGGCGGUUUUGUUGUG (ssRNA, 2'-F all positions) [AMS0416]",29.4 nM
22,"CGCUAGAUGGCCUAACACGUAUAUUUGUGGAGAUGGCACUAGCG (ssRNA, 2'-F all positions) [AMS0421.5]",0.879 nM

# Same assay, conditions: chain copies: 2 (inferred); label: biotin; stem-loop with bulges
row,Binder,Kd
1,"UUUCGCUAGAUGGCUAACACGUAUAUUUGUGGAGAUGCACUAGCG (ssRNA, 2'-F all positions) [AMS0421]",0.096 nM
2,"GCGGAUUGGCUAACACGGUCGACGUGGAGAUGCAUUCCGC (ssRNA, 2'-F all positions) [AMS0430]",0.176 nM

# Molecular target: T3, VEGF-121 (VEGFA isoform 121)
# Test: flow; PBSMCT, 37 C
# Details: chain copies: 2 (inferred); label: biotin
# Method: as §1
row,Binder,Kd
1,"AGUUAUUUGGUGGAGAGGAUCCAUUUAGCUUAUACAAUUC (ssRNA, 2'-F all positions) [AMS0419]",0.095 nM
2,"UCCGCUUGCGGAGCAGCUUCUGUAUUCUGC (ssRNA, 2'-F all positions) [AMS0407]",0.761 nM
3,"GCCGUGGAGAUGCGUUCCGUCGGGAUCGGCUAACACGGC (ssRNA, 2'-F all positions) [AMS0425.11]",0.124 nM
4,"CGCUAGUGGCGAACACGUAUAUUUGUGGCGAUGCACUAGCG (ssRNA, 2'-F all positions) [AMS0421.4]",0.471 nM
5,"CGUGGAGAUGCAUUCUGUCGAGGAUUGGCUAACACGCGAA (ssRNA, 2'-F all positions) [AMS0425]",0.092 nM
6,"UCCGCUUGCGGAGCAUCUUCUGUAUUCUGC (ssRNA, 2'-F all positions) [AMS0408]",10.1 nM
7,"CGCUAGAUGGCUAACACUAUUGUGGAGAUGCACUAGCG (ssRNA, 2'-OMe at 1-3 and 36-38, 2'-F elsewhere) [AMS0427.1]",0.047 nM
8,"CGCUAGAUGGCUAACACUAUUGUGGAGAUGCACUAGCG (ssRNA, LNA at 1-3 and 36-38, 2'-F elsewhere) [AMS0427.2]",0.043 nM
9,"UCCUUAGAUGGCUAACACGUAUAUUUGUGGAGAUGCACUA (ssRNA, 2'-F all positions) [AMS0421.1]",0.049 nM
10,"UCCGCUUGCGGAGCACCUUCUGUAUUCUGC (ssRNA, 2'-F all positions) [AMS0409]",14.2 nM
11,"CGUGGAGAUGCAUUCUUCGAGAUUGGCUAACACG (ssRNA, 2'-F all positions) [AMS0425.3]",0.245 nM
12,"GGUUUAUCUUAACUUUCUGCUACGAUACAGUUUUUGUUGA (ssRNA, 2'-F all positions) [AMS0411]",1.19 nM
13,"CCGGCCAUUGGUGGAGAUUAUCCUUUGAGUACGGUUAUUC (ssRNA, 2'-F all positions) [AMS0420]",0.082 nM
14,"GCCGUGGAGAUGCGUUCCGUCGAGGAUCGGCUAACACGGC (ssRNA, 2'-F all positions) [AMS0425.12]",0.126 nM
15,"CAGGUGGAGAUGCAUUCUGUCGAAGAUUGGCUAACACCUG (ssRNA, 2'-F all positions) [AMS0425.10]",0.107 nM
16,"CGUGGAGAUGCAUUCUGUCGAGGAUUGGCUAACACG (ssRNA, 2'-F all positions) [AMS0425.1]",0.294 nM
17,"CGUGGAGAUGCGUUCCGUCGAGGAUCGGCUAACACG (ssRNA, 2'-F all positions) [AMS0425.8]",0.287 nM
18,"GCGUAGAUGGCUAACACUAUUGUGGAGAUGCACUACGC (ssRNA, 2'-F all positions) [AMS0421.3]",0.051 nM
19,"CCAACCGUGUAUCUGUCUUGCUUGCGGCGGUUUUGUUGUG (ssRNA, 2'-F all positions) [AMS0416]",0.654 nM
20,"GGAAAACAGUAUAAUGUCUUGUUUCUUCUC (ssRNA, 2'-F all positions) [AMS0410]",11.8 nM
21,"CGCUAGAUGGCCUAACACGUAUAUUUGUGGAGAUGGCACUAGCG (ssRNA, 2'-F all positions) [AMS0421.5]",0.511 nM

# Same assay, conditions: chain copies: 2 (inferred); label: biotin; stem-loop with bulges
row,Binder,Kd
1,"UUUCGCUAGAUGGCUAACACGUAUAUUUGUGGAGAUGCACUAGCG (ssRNA, 2'-F all positions) [AMS0421]",0.045 nM
2,"GCGGAUUGGCUAACACGGUCGACGUGGAGAUGCAUUCCGC (ssRNA, 2'-F all positions) [AMS0430]",0.104 nM

# Molecular target: T2, Angiopoietin-2 (Ang2)
# Test: flow; PBSMCT, 37 C
# Details: tags: His tag, R&D Systems 623-AN; label: biotin
# Method: Various mutations and truncated variants of a representative anti-Ang2 aptamer (AMS0525) were obtained and their binding affinity to Ang2 were measured using magnetic bead partitioning. Biotinylated anti-Ang2 aptamers were conjugated to the 1 μm streptavidin-coated MyOne Streptavidin Cl magnetic beads (Thermo Fisher Scientific, 65002). Binding assays were performed by incubating fixed concentration of aptamer (0.01 nM) and Ang2 protein at concentrations ranging from 10⁻¹² to 10⁻⁸ M in PBSMCT buffer (DPBS, pH 7.2 with 2.5 mM MgCl₂, 1 mM CaCl₂) and 0.01% TWEEN-20) at 37° C. for 90 minutes. Bound target protein was partitioned by magnetic separation and subsequently labeled via fluorescent anti-His-tag antibody. The fraction of anti-Ang2 aptamer bound was quantified by flow cytometry (BD Accuri C6 Plus). Raw binding data were corrected for nonspecific background binding of target protein to empty magnetic beads. The fraction of bound anti-Ang2 aptamer was plotted as a function of protein concentration and a non-linear curve-fitting algorithm (Langmuir one-site binding model) was used to extract equilibrium binding constants (KD values) from the data (FIG. 4A).
row,Binder,Kd
1,"GCCUUAGAUAAGCCAACAAACGUACAUUCUCUGUUAGUAUUUUCAGGC (ssRNA, 2'-F all positions) [AMS0525.3]",0.033 nM
2,"CGCAUAGAUAAGCCAACAAACGUACAUUCUCUGUUAGUAUUUUCUGCG (ssRNA, LNA at 1-4 and 45-48, 2'-F elsewhere) [AMS0525.6]",0.029 nM
3,"CGCAUAGAUAAGCCAACAAACGUACAUUCUCUGUUAGUAUUUUCUGCG (ssRNA, 2'-OMe at 1-4 and 45-48, 2'-F elsewhere) [AMS0525.5]",0.043 nM
4,"CCGAUAAGCCAACAAACGUACAUUCUCUGUUAGUAUUCGG (ssRNA, 2'-F all positions) [AMS0525.4]",> 1 nM
5,B6,0.404 nM
